Measurements reported in patent US20090098124A1 (MacroGenics, published 2009).
Where a chain is given by its changes, count along the chain named. In names and notes the source's numbering stands.

T1: soluble dimeric FcγRIIB (extracellular domain fused to hinge-CH2-CH3 of human IgG2) (human, UniProt P31994 43-217)
T1 construct: extracellular domain; also called FcRIIB; FcRIIB-Fc; not shown: human IgG2 hinge-CH2-CH3
T1 sequence (looked up): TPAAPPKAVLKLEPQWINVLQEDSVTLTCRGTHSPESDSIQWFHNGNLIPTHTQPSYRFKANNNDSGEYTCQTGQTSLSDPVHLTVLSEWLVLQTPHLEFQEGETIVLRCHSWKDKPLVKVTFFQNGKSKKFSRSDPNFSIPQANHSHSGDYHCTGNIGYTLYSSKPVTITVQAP

B1: IgG1 Fc mutant A231V, Q386H, V412M (antibody)
heavy: ASTKGPSVFPLAPSSKSTSGGTAALGCLVKDYFPEPVTVSWNSGALTSGVHTFPAVLQSSGLYSLSSVVTVPSSSLGTQTYICNVNHKPSNTKVDKKVEPKSCDKTHTCPPCPVPELLGGPSVFLFPPKPKDTLMISRTPEVTCVVVDVSHEDPEVKFNWYVDGVEVHNAKTKPREEQYNSTYRVVSVLTVLHQDWLNGKEYKCKVSNKALPAPIEKTISKAKGQPREPQVYTLPPSRDELTKNQVSLTCLVKGFYPSDIAVEWESNGHPENNYKTTPPVLDSDGSFFLYSKLTMDKSRWQQGNVFSCSVMHEALHNHYTQKSLSLSPGK
B2: IgG1 Fc mutant K290T, N390I, P396L (antibody)
heavy: B1 heavy with V114A, K173T, H269Q, N273I, P279L, M295V
B3: IgG1 Fc mutant T256S, V305I, K334E, N390S (antibody)
heavy: B1 heavy with V114A, T139S, V188I, K217E, H269Q, N273S, M295V
B4: IgG1 Fc mutant F243L, V305I, A378D, F404S, P396L (antibody)
heavy: B1 heavy with V114A, F126L, V188I, A261D, H269Q, P279L, F287S, M295V
B5: IgG1 Fc mutant V273I, K326E, L328I, P396L (antibody)
heavy: B1 heavy with V114A, V156I, K209E, L211I, H269Q, P279L, M295V
B6: IgG1 Fc mutant D280E, S354F, A431D, L441I (antibody)
heavy: B1 heavy with V114A, D163E, S237F, H269Q, M295V, A314D, L324I
B7: IgG1 Fc mutant K222N, T335N, K370E, A378V, T394M (antibody)
heavy: B1 heavy with K105N, V114A, T218N, K253E, A261V, H269Q, T277M, M295V
B8: IgG1 Fc mutant P244H, L358M, V379M, N384K, V397M (antibody)
heavy: B1 heavy with V114A, P127H, L241M, V262M, N267K, H269Q, V280M, M295V
B9: IgG1 Fc mutant K246N, Q419R, P396L (antibody)
heavy: B1 heavy with V114A, K129N, H269Q, P279L, M295V, Q302R
B10: IgG1 Fc mutant V397M, T411A, S415N (antibody)
heavy: B1 heavy with V114A, H269Q, V280M, T294A, M295V, S298N
B11: IgG1 Fc mutant F243L, R255L, E318K (antibody)
heavy: B1 heavy with V114A, F126L, R138L, E201K, H269Q, M295V
B12: IgG1 Fc mutant T335N, K370E, A378V, T394M, S424L (antibody)
heavy: B1 heavy with V114A, T218N, K253E, A261V, H269Q, T277M, M295V, S307L
B13: IgG1 Fc mutant A378V, N390I, V422I (antibody)
heavy: B1 heavy with V114A, A261V, H269Q, N273I, M295V, V305I
B14: IgG1 Fc mutant R301H, K340E, D399E (antibody)
heavy: B1 heavy with V114A, R184H, K223E, H269Q, D282E, M295V
B15: IgG1 Fc mutant K290E, V369A, T393A, P396L (antibody)
heavy: B1 heavy with V114A, K173E, V252A, H269Q, T276A, P279L, M295V
B16: IgG1 Fc mutant K334E, T359N, T366S, Q386R (antibody)
heavy: B1 heavy with V114A, K217E, T242N, T249S, H269R, M295V
B17: IgG1 Fc mutant K246R, S298N, I377F (antibody)
heavy: B1 heavy with V114A, K129R, S181N, I260F, H269Q, M295V
B18: IgG1 Fc mutant E269K, K290N, Q311R, H433Y (antibody)
heavy: B1 heavy with V114A, E152K, K173N, Q194R, H269Q, M295V, H316Y
B19: IgG1 Fc mutant P291S; K288E; H268L: A141V (antibody)
heavy: B1 heavy with A24V, V114A, H151L, K171E, P174S, H269Q, M295V
B20: IgG1 Fc mutant C229Y, A287T, V379M, P396L, L443V (antibody)
heavy: B1 heavy with C112Y, V114A, A170T, V262M, H269Q, P279L, M295V, L326V
B21: IgG1 Fc mutant V303I, V369F, M428L (antibody)
heavy: B1 heavy with V114A, V186I, V252F, H269Q, M295V, M311L
B22: IgG1 Fc mutant P343S, P353L, S375I, S383N (antibody)
heavy: B1 heavy with V114A, P226S, P236L, S258I, S266N, H269Q, M295V
B23: IgG1 Fc mutant K334E, E380D, G446V (antibody)
heavy: B1 heavy with V114A, K217E, E263D, H269Q, M295V, G329V
B24: IgG1 Fc mutant V282E, V369I, L406F (antibody)
heavy: B1 heavy with V114A, V165E, V252I, H269Q, L289F, M295V
B25: IgG1 Fc mutant D221Y, M252I, A330G, A339T, T359N, V422I, H433L (antibody)
heavy: B1 heavy with D104Y, V114A, M135I, A213G, A222T, T242N, H269Q, M295V, V305I, H316L
B26: IgG1 Fc mutant P247L, A330T, S440G (antibody)
heavy: B1 heavy with V114A, P130L, A213T, H269Q, M295V, S323G
B27: IgG1 Fc mutant D221E, D270E, V308A, Q311H, P396L, G402D (antibody)
heavy: B1 heavy with D104E, V114A, D153E, V191A, Q194H, H269Q, P279L, G285D, M295V
B28: IgG1 Fc mutant F275I, K334N, V348M (antibody)
heavy: B1 heavy with V114A, F158I, K217N, V231M, H269Q, M295V
B29: IgG1 Fc mutant K326I, S408N, P396L (antibody)
heavy: B1 heavy with V114A, K209I, H269Q, P279L, S291N, M295V
B30: IgG1 Fc mutant K246E, V284M, V308A (antibody)
heavy: B1 heavy with V114A, K129E, V167M, V191A, H269Q, M295V
B31: IgG1 Fc mutant P247L, I253N, K334N (antibody)
heavy: B1 heavy with V114A, P130L, I136N, K217N, H269Q, M295V
B32: IgG1 Fc mutant K326Q, K334E, T359N, T366S (antibody)
heavy: B1 heavy with V114A, K209Q, K217E, T242N, T249S, H269Q, M295V
B33: IgG1 Fc mutant F275L, Q362H, N384K, P396L (antibody)
heavy: B1 heavy with V114A, F158L, Q245H, N267K, H269Q, P279L, M295V
B34: IgG1 Fc mutant K246I, Q362H, K370E (antibody)
heavy: B1 heavy with V114A, K129I, Q245H, K253E, H269Q, M295V
B35: IgG1 Fc mutant P247L, A431V, S442F (antibody)
heavy: B1 heavy with V114A, P130L, H269Q, M295V, A314V, S325F
B36: IgG1 Fc mutant P247L, W313R, E388G (antibody)
heavy: B1 heavy with V114A, P130L, W196R, H269Q, E271G, M295V
B37: IgG1 Fc mutant P244A, K326I, C367R, S375I, K447T (antibody)
heavy: B1 heavy with V114A, P127A, K209I, C250R, S258I, H269Q, M295V, K330T

molecular target: soluble dimeric FcγRIIB (extracellular domain fused to hinge-CH2-CH3 of human IgG2) (human) (UniProt P31994); experiment: ELISA

| Molecule | Binding to FcγRIIB (ELISA) (fold decrease) |
| --- | --- |
| IgG1 Fc mutant D399E, M428L (from UniProt P01857 1-330) (antibody) | 0.5 |

molecular target: soluble monomeric FcγRIIIA (extracellular region joined to linker-AVITAG), allele not stated (human) (UniProt P08637); experiment: ELISA
Sequence (P08637 17-208): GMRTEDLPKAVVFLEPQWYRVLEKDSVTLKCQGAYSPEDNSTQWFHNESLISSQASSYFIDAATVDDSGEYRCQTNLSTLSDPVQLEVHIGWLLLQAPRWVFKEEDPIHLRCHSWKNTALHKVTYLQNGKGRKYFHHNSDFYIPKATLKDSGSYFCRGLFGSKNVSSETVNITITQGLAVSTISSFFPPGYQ

| Molecule | Binding to FcγRIIIA (ELISA) (fold increase) | Binding to FcγRIIIA (ELISA) (fold decrease) |
| --- | --- | --- |
| IgG1 Fc mutant D312E, K327N, I378S (from UniProt P01857 1-330) (antibody) | 0.5 |  |
| IgG1 Fc mutant S298N, S407R (from UniProt P01857 1-330) (antibody) | 0.5 |  |
| IgG1 Fc mutant V348M; K334N; F275I; Y202M; K147T (from UniProt P01857 1-330) (antibody) | 0.5 |  |
| IgG1 Fc mutant H310Y; T289A; G337E (from UniProt P01857 1-330) (antibody) | 0.5 |  |
| IgG1 Fc mutant S407I (from UniProt P01857 1-330) (antibody) | 0.5 |  |
| IgG1 Fc mutant D399E, M428L (from UniProt P01857 1-330) (antibody) |  | 0.5 |
| IgG1 Fc mutant S383N; N384K; T256N; V262L; K218E; R214I; K205E; F149Y; K133M (from UniProt P01857 1-330) (antibody) | 0.5 |  |

molecular target: T2, soluble monomeric FcγRIIIA (extracellular region joined to linker-AVITAG), allele not stated (human, UniProt P08637 17-208); experiment: ELISA
T2 construct: extracellular domain; also called FcRIIIA; CD16A; not shown: linker-AVITAG
T2 sequence (P08637 17-208): as above

| Molecule | Binding to FcγRIIIA (ELISA) | binding result |
| --- | --- | --- |
| B1 | 1.5 fold increase |  |
| B2 | 2.8 fold increase |  |
| B3 | 1.5 fold increase |  |
| B4 | 1.6 fold increase |  |
| B5 | 1.3 fold increase |  |
| B6 | 3 fold increase |  |
| B7 | 1 fold increase |  |
| B8 | 1.75 fold increase |  |
| B9 | 1.1 fold increase |  |
| B10 | 0.25 fold increase |  |
| B11 | 1 fold increase |  |
| B12 | 0.5 fold increase |  |
| B13 | 0.5 fold increase |  |
| B14 | 0.5 fold decrease |  |
| B15 | 1.3 fold increase |  |
| B16 | 1 fold increase |  |
| B17 | 1 fold increase |  |
| B18 |  | no binding |

| Molecule | Binding to FcγRIIIA (ELISA) | binding result |
| --- | --- | --- |
| B19 | 0.5 fold decrease |  |
| B20 | 0.25 fold decrease |  |
| B21 |  | no binding |
| B22 | 0.5 fold increase |  |
| B23 |  | no binding |
| B24 | 0.5 fold increase |  |
| B25 | 2.5 fold increase |  |
| B26 | 0.75 fold increase |  |
| B27 | 3.6 fold increase |  |
| B28 | 0.5 fold increase |  |
| B29 | 4 fold increase |  |
| B30 |  | no binding |
| B31 | 3 fold increase |  |
| B32 | 1.5 fold increase |  |
| B33 | 2.2 fold increase |  |
| B34 |  | no binding |
| B35 | 1 fold |  |
| B36 | 1.5 fold increase |  |

molecular target: T1, soluble dimeric FcγRIIB (extracellular …); experiment: ELISA

| Molecule | Binding to FcγRIIB (ELISA) | binding result |
| --- | --- | --- |
| B1 | 6 fold increase |  |
| B2 | 6.1 fold increase |  |
| B4 | 5.4 fold increase |  |
| B5 | 10.8 fold increase |  |
| B7 | 7 fold increase |  |
| B8 | 1.5 fold increase |  |
| B9 | 4.8 fold increase |  |
| B10 | 5 fold increase |  |
| B13 | 5 fold increase |  |
| B14 | 0.25 fold decrease |  |
| B15 | 6.7 fold increase |  |
| B17 | 5 fold increase |  |
| B18 |  | no binding |
| B20 | 10 fold increase |  |
| B21 |  | no binding |
| B37 | 3 fold increase |  |
| B22 | 6 fold increase |  |
| B23 |  | no binding |
| B24 | 7 fold increase |  |
| B25 | 6 fold increase |  |
| B26 | 0.25 fold decrease |  |
| B27 | 0.1 fold increase |  |
| B29 | 9.3 fold increase |  |
| B30 |  | no binding |
| B31 | 2.5 fold increase |  |
| B32 | 5 fold increase |  |
| B33 | 3.7 fold increase |  |
| B34 | 0.5 fold decrease |  |
| B36 | 1 fold increase |  |
